Test results: paper PMC5928759, “D-Serine Metabolism and Its Importance in Development of Dictyostelium discoideum” (Frontiers in Microbiology, 2018)

Key:
[1] = biological target: T1, D-amino acid oxidase (DAO; DDB0238432 protein) (Dictyostelium discoideum, UniProt Q556W1); assay: UV-visible spectrum of purified enzyme; assay type: binding; conditions: oxidized flavin, maxima around 360 and 450 nm; FAD in storage buffer
T1 construct: gene ddo-1; cDNA from EST clone in pET15b, N-terminal 6-His tag, expressed in E. coli Rosetta (DE3), Ni-NTA purified

purified protein [2] = substrate: N[C@H](CO)C(=O)O; assay: purified protein; conditions: oxidative deamination, 50 mM Tris-HCl pH 8.5, 20 μM FAD
purified protein [3] = substrate: C[C@@H](N)C(=O)O; assay: purified protein; conditions: oxidative deamination, 50 mM Tris-HCl pH 8.5, 20 μM FAD

Row | Molecule | UV-visible spectrum of purified enzyme [1] | Km (purified protein [2]) [mM] | kcat (purified protein [2]) [s⁻¹] | kcat/Km (purified protein [2]) [M⁻¹ s⁻¹] | Km (purified protein [3]) [mM] | kcat (purified protein [3]) [s⁻¹] | kcat/Km (purified protein [3]) [M⁻¹ s⁻¹]
1 | Cc1cc2nc3c(=O)[nH]c(=O)nc-3n(C[C@H](O)[C@H](O)[C@H](O)COP(=O)(O)OP(=O)(O)OC[C@H]3O[C@@H](n4cnc5c(N)ncnc54)[C@H](O)[C@@H]3O)c2cc1C [FAD] | indicating that it possesses an oxidized form of the flavin cofactor |  |  |  |  |  | 
2 | D-amino acid oxidase (DAO; DDB0238432 protein) (Dictyostelium discoideum) (protein) MNQNKNNNNKNPKINLLIIGCGCIGLSTGIIALKSGNYKSVSIWAKDLPPNTTSNKAAALWYPFLCNPLDLVGKWSAETMQYYKDHIINDPKSGTITKKVNEIFRRPHPEDPEWKPYIKSFRRARKDELPDGYVDGYAIDDGFVMDTDMYMDYLVDQFKSLGGIIEQRHLVDIREAFVDHDVVVNCTGLGSRELFNDRTIYPGRGQIIVIKNSTDRSIMDEEDHIAYVIPRLTNTVLGGTNQEHDYNTNPTKKDTEEILKRVAMISPRFAKNRIEIQGVKVGLRPARHEIRLENEFFEGGSKLVVHNYGHGGSGFTVSWGCAIEAIKLVDQGLPKLLHFNKLISKL |  | 6.1 ± 0.78 | 0.05 | 10 | 0.78 ± 0.05 | 0.53 | 680
